Target: T1, GST-ZPR1 (human, UniProt O75312 1-459)
T1 sequence: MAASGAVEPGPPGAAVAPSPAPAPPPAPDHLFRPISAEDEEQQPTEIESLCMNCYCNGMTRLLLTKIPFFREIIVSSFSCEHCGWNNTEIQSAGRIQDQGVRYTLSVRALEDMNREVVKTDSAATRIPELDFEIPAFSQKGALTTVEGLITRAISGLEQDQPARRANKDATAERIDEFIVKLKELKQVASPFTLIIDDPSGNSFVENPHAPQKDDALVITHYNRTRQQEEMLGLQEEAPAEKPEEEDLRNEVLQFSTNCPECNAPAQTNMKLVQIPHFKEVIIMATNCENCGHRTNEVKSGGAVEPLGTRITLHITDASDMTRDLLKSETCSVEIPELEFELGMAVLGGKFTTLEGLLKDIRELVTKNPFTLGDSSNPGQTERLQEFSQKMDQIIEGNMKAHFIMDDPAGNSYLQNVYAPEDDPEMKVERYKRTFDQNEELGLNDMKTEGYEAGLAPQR
Experiment: EMSA

CGAAACTACCTTCAACTCCATCATGAAGTGTGACGTGGAC (ssDNA) [DNA* 40 nt]: binds.

Source: publication PMC9536298
